What was measured:
[1] = biological target: CaVβ2a core (unimolecular CaVβ2a construct) (rat); assay: ITC; 20 μM AID peptide titrated into 2 μM CaVβ2a core; 15 °C; 150 mM KCl, 10 mM potassium phosphate, pH 7.3; single site binding model
[2] = biological target: CaVβ2a core (Rattus norvegicus) (UniProt Q8VGC3); assay: ITC; details: cited from earlier work
[3] = biological target: Human CaV1.2 (α1C77) (human) (UniProt Q13936)
[4] = biological target: Human CaV1.2-Y437A (human)

Chain of Human CaV1.2 (α1C77) (human) (Q13936 other isoform, or with tags, fused parts or gaps): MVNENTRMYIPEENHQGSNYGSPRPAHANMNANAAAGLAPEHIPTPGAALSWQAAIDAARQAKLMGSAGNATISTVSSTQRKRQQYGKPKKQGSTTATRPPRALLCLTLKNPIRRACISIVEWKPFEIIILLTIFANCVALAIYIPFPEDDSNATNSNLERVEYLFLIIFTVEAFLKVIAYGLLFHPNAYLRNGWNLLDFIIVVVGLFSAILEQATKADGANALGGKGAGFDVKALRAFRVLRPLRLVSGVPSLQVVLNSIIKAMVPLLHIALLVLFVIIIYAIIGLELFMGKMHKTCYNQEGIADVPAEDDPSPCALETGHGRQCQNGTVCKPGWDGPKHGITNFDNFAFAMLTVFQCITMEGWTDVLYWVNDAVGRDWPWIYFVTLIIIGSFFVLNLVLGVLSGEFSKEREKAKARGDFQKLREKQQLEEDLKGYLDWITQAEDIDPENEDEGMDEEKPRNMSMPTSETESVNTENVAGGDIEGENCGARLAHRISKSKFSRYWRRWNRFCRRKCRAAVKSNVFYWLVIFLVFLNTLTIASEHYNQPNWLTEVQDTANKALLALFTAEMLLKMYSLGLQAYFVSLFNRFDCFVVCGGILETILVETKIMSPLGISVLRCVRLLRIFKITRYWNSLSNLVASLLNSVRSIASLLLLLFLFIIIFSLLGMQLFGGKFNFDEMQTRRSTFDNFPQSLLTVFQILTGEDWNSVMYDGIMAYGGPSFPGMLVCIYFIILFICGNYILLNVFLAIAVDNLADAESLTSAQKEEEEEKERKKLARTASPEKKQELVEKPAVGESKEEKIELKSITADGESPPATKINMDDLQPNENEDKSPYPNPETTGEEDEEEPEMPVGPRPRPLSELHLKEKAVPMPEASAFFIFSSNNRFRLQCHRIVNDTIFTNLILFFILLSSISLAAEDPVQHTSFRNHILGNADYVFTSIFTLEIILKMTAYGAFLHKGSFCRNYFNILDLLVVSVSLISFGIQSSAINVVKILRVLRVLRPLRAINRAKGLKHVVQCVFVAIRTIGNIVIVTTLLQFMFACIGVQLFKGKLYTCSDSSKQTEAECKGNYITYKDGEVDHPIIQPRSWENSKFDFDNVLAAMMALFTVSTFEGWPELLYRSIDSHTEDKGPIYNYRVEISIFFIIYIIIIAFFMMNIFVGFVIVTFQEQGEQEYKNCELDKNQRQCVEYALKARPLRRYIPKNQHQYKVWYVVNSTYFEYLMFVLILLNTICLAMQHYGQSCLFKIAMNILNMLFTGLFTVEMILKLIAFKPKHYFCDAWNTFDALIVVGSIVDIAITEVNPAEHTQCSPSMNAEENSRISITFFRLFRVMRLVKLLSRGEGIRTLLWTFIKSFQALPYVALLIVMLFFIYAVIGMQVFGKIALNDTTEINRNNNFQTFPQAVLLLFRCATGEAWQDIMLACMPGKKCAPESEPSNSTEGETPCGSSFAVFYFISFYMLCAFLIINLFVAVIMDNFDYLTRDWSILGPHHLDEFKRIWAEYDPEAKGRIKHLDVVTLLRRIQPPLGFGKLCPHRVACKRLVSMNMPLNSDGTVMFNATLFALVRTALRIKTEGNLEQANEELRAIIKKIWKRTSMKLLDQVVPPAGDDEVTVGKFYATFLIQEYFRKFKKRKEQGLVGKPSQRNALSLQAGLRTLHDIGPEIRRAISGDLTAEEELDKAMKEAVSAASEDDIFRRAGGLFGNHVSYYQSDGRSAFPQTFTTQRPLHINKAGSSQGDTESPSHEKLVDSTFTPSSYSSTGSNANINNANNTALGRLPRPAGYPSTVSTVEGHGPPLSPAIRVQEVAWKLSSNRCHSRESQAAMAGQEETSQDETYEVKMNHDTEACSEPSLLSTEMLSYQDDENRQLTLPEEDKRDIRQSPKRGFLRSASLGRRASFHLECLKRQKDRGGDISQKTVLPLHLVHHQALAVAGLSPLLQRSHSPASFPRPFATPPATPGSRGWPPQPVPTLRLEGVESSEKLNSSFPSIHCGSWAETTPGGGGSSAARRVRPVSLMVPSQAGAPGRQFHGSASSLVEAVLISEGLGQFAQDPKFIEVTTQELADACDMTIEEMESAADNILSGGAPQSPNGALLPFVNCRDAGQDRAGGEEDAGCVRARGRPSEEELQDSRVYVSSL
Chain of CaVβ3 (expressed in oocytes) (P54286 whole entry): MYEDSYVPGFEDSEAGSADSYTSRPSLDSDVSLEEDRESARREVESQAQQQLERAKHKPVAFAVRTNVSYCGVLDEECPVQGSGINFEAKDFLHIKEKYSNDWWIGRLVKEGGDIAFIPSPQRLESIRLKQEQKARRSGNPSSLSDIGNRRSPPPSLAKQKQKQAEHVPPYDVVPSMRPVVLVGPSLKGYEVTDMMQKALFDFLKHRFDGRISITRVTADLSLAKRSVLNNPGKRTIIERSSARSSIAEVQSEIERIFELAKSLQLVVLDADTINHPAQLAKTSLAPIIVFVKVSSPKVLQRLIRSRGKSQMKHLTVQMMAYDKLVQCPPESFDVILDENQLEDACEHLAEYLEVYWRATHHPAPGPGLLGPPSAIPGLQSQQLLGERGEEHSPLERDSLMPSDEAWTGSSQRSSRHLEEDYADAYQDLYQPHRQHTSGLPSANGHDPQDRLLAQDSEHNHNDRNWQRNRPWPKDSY
Chain of CaVβ2a core (Rattus norvegicus) (Q8VGC3 68-476): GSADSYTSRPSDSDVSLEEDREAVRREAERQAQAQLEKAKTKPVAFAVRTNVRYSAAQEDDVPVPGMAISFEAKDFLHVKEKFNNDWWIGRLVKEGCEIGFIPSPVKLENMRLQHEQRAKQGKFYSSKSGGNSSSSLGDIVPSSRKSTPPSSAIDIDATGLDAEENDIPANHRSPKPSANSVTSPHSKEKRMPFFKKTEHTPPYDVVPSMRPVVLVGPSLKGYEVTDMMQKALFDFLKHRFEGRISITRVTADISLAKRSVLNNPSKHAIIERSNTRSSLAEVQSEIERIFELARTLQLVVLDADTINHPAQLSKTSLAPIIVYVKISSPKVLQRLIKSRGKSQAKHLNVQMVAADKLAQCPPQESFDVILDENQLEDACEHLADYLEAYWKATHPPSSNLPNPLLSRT
Chain of CaV1.2 AID peptide AID (Q13936 425-448): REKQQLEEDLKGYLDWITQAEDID

Substance “CaV1.2 AID peptide (α-interaction domain, unmodified)” has a Kd [1] of 6.6 nM, a dH [1] of -15.6 kcal mol^–1 and a stoichiometry N [1] of 0.94.

For “CaV1.2 AID peptide AID (from UniProt Q13936)”, the Kd [2] is listed as 5.3 nM.

For “CaVβ3 (expressed in oocytes) (from UniProt P54286 1-477) (natural protein)”, the time constant τ for the loss of CaV1.2:CaVβ3 channels (rundown of Imax, single exponential fit) after injection of 2.8 mM AID peptide [3] was 4.6 min and the time constant τ for the loss of CaV1.2:CaVβ3 channels (rundown of Imax, single exponential fit) after injection of 2.8 mM AID-CAP peptide [3] was 5.3 min.

For “Rat CaVβ2a (expressed in oocytes) (natural protein)”, the time constant τ of the rundown of Imax of CaV1.2-Y437A:CaVβ2a currents after injection of 400 μM AID peptide (single exponential fit) [4] was 5.3 min and the time constant τ of the rundown of Imax of CaV1.2-Y437A:CaVβ2a currents after injection of 400 μM AID-CAP peptide (single exponential fit) [4] was 4.1 min.
